The text below walks through data of article PMC9001735, “Insights into the inhibition of type I-F CRISPR-Cas system by a multifunctional anti-CRISPR protein AcrIF24”.

The target in series [1] is Csy complex;AcrIF24 (Pseudomonas aeruginosa;Pseudomonas aeruginosa prophage) (UniProt Q02ML9+Q02MM0+Q02MM1+Q02MM2). Nature of the series: MST. The following applies: Kd only in figure, EMSA: 20 mM HEPES pH 7.5, 150 mM NaCl, 5% glycerol, 37 C 30 min, 1 uM DNA (20 nM for Kd), MST: 20 mM HEPES pH 7.5, 150 mM KCl. For orientation: In EMSA bound probe runs differently from free probe, usually more slowly.

For series [2], the target named is Csy complex;AcrIF9 (Pseudomonas aeruginosa;) (UniProt Q02ML9+Q02MM0+Q02MM1+Q02MM2). Briefly: MST. The following applies: Kd only in figure, EMSA: 20 mM HEPES pH 7.5, 150 mM NaCl, 5% glycerol, 37 C 30 min, 1 uM DNA (20 nM for Kd), MST: 20 mM HEPES pH 7.5, 150 mM KCl.
For series [3], the target named is AcrIF24 Δmiddle domain (Pseudomonas aeruginosa prophage). Briefly: SEC-MALS; Superdex-200 10/300 GL, 20 mM HEPES pH 7.5, 200 mM NaCl; AcrIF24 1.5 mg/mL, AcrIF24ΔMD 15 mg/mL; gel filtration coupled with static light scattering. For orientation: SEC sorts molecules by how far they enter the pores of the column.
Series [4] deals with crRNA-guided surveillance complex (Csy complex) of the type I-F CRISPR-Cas system from P. aeruginosa (P. aeruginosa) (UniProt Q02ML9). Nature of the series: SEC-MALS; co-expressed and purified Csy-AcrIF24 complex, 1.5 mg/mL; Superdex-200 10/300 GL, 20 mM HEPES pH 7.5, 200 mM NaCl.
The test system of series [5] is AcrIF24 (Pseudomonas aeruginosa prophage). Briefly: EMSA. The following applies: EMSA: 20 mM HEPES pH 7.5, 150 mM NaCl, 5% glycerol, 37 C 30 min, 1 uM DNA (20 nM for Kd), MST: 20 mM HEPES pH 7.5, 150 mM KCl.
Series [6] addresses crRNA-guided surveillance complex (Csy complex) of the type I-F CRISPR-Cas system from P. aeruginosa (P. aeruginosa) (UniProt Q02ML9). Nature of the series: SPR; Biacore 8K, 25 °C; Csy complex immobilised on a CM5 chip (~10,000 RU), AcrIF24 injected; 20 mM HEPES pH 7.5, NaCl, 0.05% Tween-20; 1:1 Langmuir model. Background: In SPR one partner is held on a chip, and binding of the other changes the refractive index at the surface.

Series [7] has as its target AcrIF24 (full-length, wild type) (Pseudomonas aeruginosa prophage). Briefly: SEC-MALS; Superdex-200 10/300 GL, 20 mM HEPES pH 7.5, 200 mM NaCl; AcrIF24 1.5 mg/mL, AcrIF24ΔMD 15 mg/mL; gel filtration coupled with static light scattering.
In series [8] the target is crRNA-guided surveillance complex (Csy complex) of the type I-F CRISPR-Cas system from P. aeruginosa (P. aeruginosa) (UniProt Q02ML9). Nature of the series: SEC-MALS; mix of AcrIF24 and Csy complex (7.5 mg/mL), AcrIF24:Csy 1:1; Superdex-200 10/300 GL, 20 mM HEPES pH 7.5, 200 mM NaCl.
For series [9] the target is unchanged. Briefly: SEC-MALS; mix of AcrIF24 and Csy complex (7.5 mg/mL), AcrIF24:Csy 5:1; Superdex-200 10/300 GL, 20 mM HEPES pH 7.5, 200 mM NaCl.
The target is the same in series [10]. Nature of the series: SEC-MALS; mix of AcrIF24 and Csy complex (7.5 mg/mL), AcrIF24:Csy 1:5; Superdex-200 10/300 GL, 20 mM HEPES pH 7.5, 200 mM NaCl.
Series [11] deals with AcrIF24ΔMD (Pseudomonas aeruginosa prophage). Nature of the series: EMSA. Particulars: EMSA: 20 mM HEPES pH 7.5, 150 mM NaCl, 5% glycerol, 37 C 30 min, 1 uM DNA (20 nM for Kd), MST: 20 mM HEPES pH 7.5, 150 mM KCl.
For series [12], the target named is T1, Csy complex (Pseudomonas aeruginosa, UniProt Q02ML9;Q02MM0;Q02MM1;Q02MM2 1-434;1-327;1-342;1-187).
T1 sequence 1: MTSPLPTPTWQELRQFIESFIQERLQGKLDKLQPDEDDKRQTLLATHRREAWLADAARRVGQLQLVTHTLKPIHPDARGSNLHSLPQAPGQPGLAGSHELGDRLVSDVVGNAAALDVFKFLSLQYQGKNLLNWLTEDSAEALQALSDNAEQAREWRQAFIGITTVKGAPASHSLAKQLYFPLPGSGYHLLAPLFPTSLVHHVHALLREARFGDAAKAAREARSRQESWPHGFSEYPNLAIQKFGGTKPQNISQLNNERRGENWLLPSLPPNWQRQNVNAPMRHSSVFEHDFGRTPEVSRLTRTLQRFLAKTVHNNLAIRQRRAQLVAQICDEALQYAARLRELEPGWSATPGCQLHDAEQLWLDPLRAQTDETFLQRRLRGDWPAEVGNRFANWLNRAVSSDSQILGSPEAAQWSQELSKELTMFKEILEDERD
T1 sequence 2: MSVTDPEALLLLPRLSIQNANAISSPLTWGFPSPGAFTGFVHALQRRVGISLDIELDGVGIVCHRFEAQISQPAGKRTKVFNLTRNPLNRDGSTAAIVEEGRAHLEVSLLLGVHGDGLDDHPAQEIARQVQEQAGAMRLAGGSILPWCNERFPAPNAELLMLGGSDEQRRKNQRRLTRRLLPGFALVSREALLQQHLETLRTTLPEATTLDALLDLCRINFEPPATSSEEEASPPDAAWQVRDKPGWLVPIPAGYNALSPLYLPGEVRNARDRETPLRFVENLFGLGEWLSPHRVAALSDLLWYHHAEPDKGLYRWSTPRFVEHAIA
T1 sequence 3: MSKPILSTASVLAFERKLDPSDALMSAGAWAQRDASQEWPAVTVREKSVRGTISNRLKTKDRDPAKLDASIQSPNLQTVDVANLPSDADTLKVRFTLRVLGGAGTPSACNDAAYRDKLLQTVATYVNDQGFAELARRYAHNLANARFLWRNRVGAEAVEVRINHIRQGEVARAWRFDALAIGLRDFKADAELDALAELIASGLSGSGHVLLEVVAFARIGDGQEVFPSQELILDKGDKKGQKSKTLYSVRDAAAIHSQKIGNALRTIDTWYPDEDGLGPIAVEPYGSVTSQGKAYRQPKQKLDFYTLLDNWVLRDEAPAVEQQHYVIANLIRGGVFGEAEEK
T1 sequence 4: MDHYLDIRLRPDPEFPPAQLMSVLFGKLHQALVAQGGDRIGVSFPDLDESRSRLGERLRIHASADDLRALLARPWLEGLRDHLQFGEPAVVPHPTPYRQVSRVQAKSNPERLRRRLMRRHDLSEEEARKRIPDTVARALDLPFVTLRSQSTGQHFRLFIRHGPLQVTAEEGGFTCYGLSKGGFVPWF
Nature of the series: EMSA; EMSA: 20 mM HEPES pH 7.5, 150 mM NaCl, 5% glycerol, 37 C 30 min, 1 uM DNA (20 nM for Kd); MST: 20 mM HEPES pH 7.5, 150 mM KCl, 5% glycerol. The following applies: protein: recombinant, copies: 1;1;6;1, blunt.

Values joined by “and” are separate entries in the source; they are usually repeats but may differ in a detail not shown here. Equal values may be shown once.

Consider “GAGCGACTACGACATGAGCGCGCAGCTAAGACCGCCCGTAGATGCGTCGAGCGT [ssDNANS 54 nt]”, for which the binding signal (fold weaker than ssDNASP) in [1] and in [2] was 10 each time.
Consider “AcrIF24 Δmiddle domain (domain or fragment)”, for which the stoichiometry N in series [3] turned out to be 2.
On to “AcrIF24 co-expressed with the Csy complex (natural protein)”, for which the stoichiometry N (AcrIF24 per Csy complex) in [4] was determined as 1.
On to “GAGCGACTACGACATGAGCGCGCAGCTAAGACCGCCCGTAGATGCGTCGAGCGT (double strand) [dsDNANS 54 bp]”, for which the Kd in series [5] amounted to 3460 nM. That is a single-digit micromolar value.
In turn, “AcrIF24 (full-length, wild type) (natural protein)” showed a Kd in [6] of 4.21 nM. Besides, the koff in series [6] worked out at 0.00118 s⁻¹. Further, the kon in series [6] came to 281000 M⁻¹ s⁻¹. For the same molecule, the stoichiometry N in series [7] turned out to be 2. For the same molecule, the stoichiometry N (AcrIF24 per Csy complex) in series [8] is 1; in series [9] it was 2 and 1; in [10], 1.
Take “GCATAGCTCGATCCGAGCTAGTA (double strand) [IR23-24 WT]”: the figures for the Kd in [5] and in [11] were 20.2 nM and 49.1 nM, respectively.

B1: dsDNASP 54 bp (dsDNA)
DNA 1: GGAAGCCATCCAGGTAGACGCGGACATCAAGCCCGCCGTGAAGGTGCAGCTGCT
DNA 2: AGCAGCTGCACCTTCACGGCGGGCTTGATGTCCGCGTCTACCTGGATGGCTTCC
Consider B1, for which the binding result in [12] (label: 5'-FAM or 3'-FAM on target strand, unlabelled in some assays) is recorded as “binds”.

B2: dsDNANS 54 bp (dsDNA)
DNA 1: GAGCGACTACGACATGAGCGCGCAGCTAAGACCGCCCGTAGATGCGTCGAGCGT
DNA 2: ACGCTCGACGCATCTACGGGCGGTCTTAGCTGCGCGCTCATGTCGTAGTCGCTC
For the molecule B2, the binding result in [12] (label: 5'-FAM or 3'-FAM) was “no binding”.

As a reminder, the stoichiometry N is the number of molecules, sites or subunits per partner or assembly. As a reminder, the Kd is the constant that tells how readily two partners part at equilibrium. Read a high Kd as a looser complex. As usually defined, the koff is a measure of how fast the partners let go of each other. The term kon denotes the rate constant with which the complex forms. The low end stands for slow association, the high end for fast association.
